Measured values taken from patent US20030113292A1, “Methods of treating viral diseases with il-18 and il-18 combinations” (priority 2000, published 2003).

Experiments:
Chimpanzee PBMCs = assay: Mediator induction in chimpanzee PBMCs (ELISA of supernatants); type: cell-based
Method: Chimpanzee or human PBMCs were isolated and treated with either control media, human IL-18 at 100 ng/ml, or IL-18 (100 ng/ml) in combination with IL-2 at 3 ng/ml. Supernatants were frozen following incubation for 24, 48, 72, or 96 hours. Mediator levels were analyzed by ELISA. […] Moreover there is synergy between IL-2 and IL-18 at inducing GM-CSF, IL-8, Neopterin, and IFN-gamma (FIGS. 9 and 10). These observations were confirmed in multiple chimp and human donors.
The highest protein levels were detected in samples obtained 96 hours post-treatment, with the exception of IFN-gamma that reached a maximum level at 24 hours.
In this study, treatment with IL-2 alone was used as control.

Hepatitis B Virus (HBV) = assay: HBV transgenic mice, liver HBV DNA by Southern blot; type: in vivo; conditions: Day 3
Method: HBV transgenic mice (Guidotti et. al, 1995. J. Virol 69:6158-6169) were treated with three daily subcutaneous injections (Days 0, 1 and 2) of 4 different doses (100, 10, 1 and 0.1 microgram) of recombinant murine IL-18, with analysis of the liver for HBV DNA on Day 3 by Southern blot.

[1] = system: GM-CSF, IFN-gamma, and TNF mRNA; assay: Cytokine mRNA induction in spleens of uninfected mice (quantitative real-time PCR); type: in vivo, Female Balb/C mice
HSV-1 (SC-16) = assay: Lethal systemic HSV infection model; type: in vivo, mice
Method: Several studies evaluated the effect of murine IL-18 in a lethal systemic HSV infection model. Murine IL-18 was administered IP at −2 hours, 24 hours, and 48 hours following IP infection with HSV-1 (SC-16). IL-18 treatment at 10-ug/mouse lead to 40% survival in all studies, relative to no survival of vehicle treated animals (FIG. 5). […] In a single study, two daily doses of IL-18 at 100 ug/mouse lead to 70% survival (not shown).

TNF-α, IFN-γ, and GM-CSF = assay: Cytokine protein induction in uninfected mice (ELISA of sera and spleen homogenates); type: in vivo, Female Balb/C mice
[2] = post-treatment, IL-18 100 ng/ml

Molecule | IL-8 induction (Chimpanzee PBMCs; IL-18 100 ng/ml, FIG. 9(a), donor species of FIG. 9 not given) [fold] | Neopterin induction (Chimpanzee PBMCs; IL-18 100 ng/ml, FIG. 9(b), donor species of FIG. 9 not given) [fold] | GM-CSF induction (Chimpanzee PBMCs; IL-18 100 ng/ml, FIG. 9(c), donor species of FIG. 9 not given) [fold] | IFN-gamma induction (Chimpanzee PBMCs; IL-18 100 ng/ml, FIG. 9(d), donor species of FIG. 9 not given) [fold] | inducing cytokine expression in chimp PBMCs (Chimpanzee PBMCs; human IL-18 100 ng/ml, 24-96 hours) | time of highest protein levels (IL-8, Neopterin, GM-CSF) (Chimpanzee PBMCs; [2]) [h] | time of maximum IFN-gamma level (Chimpanzee PBMCs; [2]) [h] | reduction of liver HBV DNA at lowest dose (Hepatitis B Virus (HBV); 0.1 micrograms sc Days 0, 1, 2) | reduction of liver HBV DNA at higher doses (Hepatitis B Virus (HBV); 1, 10, 100 microgram sc Days 0, 1, 2) | virus replication (levels of viral DNA in liver) (Hepatitis B Virus (HBV); three daily sc injections, 100, 10, 1 and 0.1 microgram) | IFN γ mRNA induction over vehicle ([1]; 2.5-6 hours post injection, real-time PCR, spleen) | TNF mRNA induction ([1]; quantitative real-time PCR) | GM-CSF mRNA induction relative to vehicle control ([1]; real-time PCR, data not shown) | survival (HSV-1 (SC-16); 10-ug/mouse IP at -2, 24 and 48 hours, vehicle: no survival) [%] | time to death (HSV-1 (SC-16); all studies) | survival (HSV-1 (SC-16); two daily doses at 100 ug/mouse, single study, not shown) [%] | induction of GM-CSF protein (TNF-α, IFN-γ, and GM-CSF; IP 10 or 100 ug) | IFN levels in sera and spleens (TNF-α, IFN-γ, and GM-CSF; IP 10 or 100 ug murine IL-18, by 2.5 hours post-treatment) [ng/mL] | induction of TNF-α protein (TNF-α, IFN-γ, and GM-CSF; IP 10 or 100 ug, called minimal induction) [pg/mL]
human IL-18: human IL-18, amino acid sequence SEQ ID NO:1; 157 amino acid cytokine, interferon-γ-inducing factor | 14 | 7 | 100 | 8 | active | 96 | 24 |  |  |  |  |  |  |  |  |  |  |  | 
murine IL-18: murine IL-18, amino acid sequence SEQ ID NO:2; interferon-γ-inducing factor cytokine (protein, listed as Mus musculus) NFGRLHCTTAVIRNINDQVLFVDKRQPVFEDMTDIDQSASEPQTRLIIYMYKDSEVRGLAVTLSVKDSKMSTLSCKNKIISFEEMDPPENIDDIQSDLIFFQKRVPGHNKMEFESSLYEGHFLACQKEDDAFKLILKKKDENGDKSVMFTLTNLHQS |  |  |  |  |  |  |  | some reduction | greater reductions | dose-dependent reduction | up to 20 fold | observed | 6-10 fold | 40 | delay in time to death | 70 | no induction | 2 | 100
